According to article PMC3965691:

Target: GST-Pin1 (human Pin1, full length, fused to GST) (human) (UniProt Q13526)
Assay: pull-down

Chain of GST-Pin1 (human Pin1, full length, fused to GST) (human) (Q13526 whole entry, the tested form may be a part): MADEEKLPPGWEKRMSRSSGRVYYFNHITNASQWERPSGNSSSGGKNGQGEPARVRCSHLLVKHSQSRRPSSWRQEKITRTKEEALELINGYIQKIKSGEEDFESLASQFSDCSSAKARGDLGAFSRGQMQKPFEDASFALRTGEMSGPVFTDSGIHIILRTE

K0.5 | Substance
0.3 µM | His6-DI-2 (Drosophila phosphatase inhibitor-2) (natural protein)
0.3 µM | His6-XI-2 (Xenopus phosphatase inhibitor-2) (natural protein)
